{
  "source": "patent US20130209454A1",
  "experiment_in_all_cases": "cell-based or functional assay",
  "key": {"[1]": {"target": "Env of HIV-1 strain 1006_11_C3_1601 (HIV-1)"}, "[2]": {"target": "Env of HIV-1 strain 1056_10_TA11_1826 (HIV-1)"}, "[3]": {"target": "Env of HIV-1 strain 1394C9G1(Rev-) (HIV-1)"}, "[4]": {"target": "Env of HIV-1 strain 211-9 (HIV-1)"}, "[5]": {"target": "Env of HIV-1 strain BF1266.431a (HIV-1)"}, "[6]": {"target": "Env of HIV-1 strain C3347.c11 (HIV-1)"}, "[7]": {"target": "Env of HIV-1 strain CNE21 (HIV-1)"}, "[8]": {"target": "Env of HIV-1 strain CNE30 (HIV-1)"}, "[9]": {"target": "Env of HIV-1 strain CNE52 (HIV-1)"}, "[10]": {"target": "Env of HIV-1 strain Ce1176_A3 (HIV-1)"}, "[11]": {"target": "Env of HIV-1 strain Ce703010054_2A2 (HIV-1)"}, "[12]": {"target": "Env of HIV-1 strain Du422.1 (HIV-1)"}, "[13]": {"target": "Env of HIV-1 strain HIV-001428-2.42 (HIV-1)"}, "[14]": {"target": "Env of HIV-1 strain HIV-16845-2.22 (HIV-1)"}, "[15]": {"target": "Env of HIV-1 strain P0402_c2_11 (HIV-1)"}, "[16]": {"target": "Env of HIV-1 strain P1981_C5_3 (HIV-1)"}, "[17]": {"target": "Env of HIV-1 strain Q23.17 (HIV-1)"}, "[18]": {"target": "Env of HIV-1 strain Q259.d2.17 (HIV-1)"}, "[19]": {"target": "Env of HIV-1 strain QH0692.42 (HIV-1)"}, "[20]": {"target": "Env of HIV-1 strain REJO4541.67 (HIV-1)"}, "[21]": {"target": "Env of HIV-1 strain RHPA4259.7 (HIV-1)"}, "[22]": {"target": "Env of HIV-1 strain T255-34 (HIV-1)"}, "[23]": {"target": "Env of HIV-1 strain T257-31 (HIV-1)"}, "[24]": {"target": "Env of HIV-1 strain THRO4156.18 (HIV-1)"}, "[25]": {"target": "Env of HIV-1 strain X1632_S2_B10 (HIV-1)"}, "[26]": {"target": "Env of HIV-1 strain ZM109F.PB4 (HIV-1)"}, "[27]": {"target": "Env of HIV-1 strain ZM233M.PB6 (HIV-1)"}, "[28]": {"target": "Env of HIV-1 strain ZM247v1(Rev-) (HIV-1)"}, "[29]": {"target": "Env of HIV-1 strain ZM53M.PB12 (HIV-1)"}, "[30]": {"target": "HIV-1 Env of strain 0815.v3.c3 (HIV-1)"}, "[31]": {"target": "HIV-1 Env of strain 191955_A11 (HIV-1)"}, "[32]": {"target": "HIV-1 Env of strain 235-47 (HIV-1)"}, "[33]": {"target": "HIV-1 Env of strain 3817.v2.c59 (HIV-1)"}, "[34]": {"target": "HIV-1 Env of strain 6480.v4.c25 (HIV-1)"}, "[35]": {"target": "HIV-1 Env of strain 6811.v7.c18 (HIV-1)"}, "[36]": {"target": "HIV-1 Env of strain 928-28 (HIV-1)"}, "[37]": {"target": "HIV-1 Env of strain BF1266.431a (HIV-1)"}, "[38]": {"target": "HIV-1 Env of strain BJOX009000.02.4 (HIV-1)"}, "[39]": {"target": "HIV-1 Env of strain C4118.c09 (HIV-1)"}, "[40]": {"target": "HIV-1 Env of strain CAP210.2.00.E8 (HIV-1)"}, "[41]": {"target": "HIV-1 Env of strain CNE30 (HIV-1)"}, "[42]": {"target": "HIV-1 Env of strain Ce1172_H1 (HIV-1)"}, "[43]": {"target": "HIV-1 Env of strain Du422.1 (HIV-1)"}, "[44]": {"target": "HIV-1 Env of strain Q259.d2.17 (HIV-1)"}, "[45]": {"target": "HIV-1 Env of strain Q842.d12 (HIV-1)"}, "[46]": {"target": "HIV-1 Env of strain R2184.c04 (HIV-1)"}, "[47]": {"target": "HIV-1 Env of strain T250-4 (HIV-1)"}, "[48]": {"target": "HIV-1 Env of strain T255-34 (HIV-1)"}, "[49]": {"target": "HIV-1 Env of strain T257-31 (HIV-1)"}, "[50]": {"target": "HIV-1 Env of strain X1632_S2_B10 (HIV-1)"}, "[51]": {"target": "HIV-1 Env of strain ZM233M.PB6 (HIV-1)"}},
  "data": [
    {"substance": "NIH45-46 (antibody)", "values": [
      {"measurement": "IC80", "setting": "[1]", "result": 0.196, "unit": "µg/mL"},
      {"measurement": "IC80", "setting": "[2]", "result": 0.447, "unit": "µg/mL"},
      {"measurement": "IC80", "setting": "[3]", "result": 0.38, "unit": "µg/mL"},
      {"measurement": "IC80", "setting": "[4]", "result": "> 50", "unit": "µg/mL"},
      {"measurement": "IC80", "setting": "[5]", "result": 0.03, "unit": "µg/mL"},
      {"measurement": "IC80", "setting": "[6]", "result": 0.094, "unit": "µg/mL"},
      {"measurement": "IC80", "setting": "[7]", "result": 38.1, "unit": "µg/mL"},
      {"measurement": "IC80", "setting": "[8]", "result": 1.07, "unit": "µg/mL"},
      {"measurement": "IC80", "setting": "[9]", "result": 0.12, "unit": "µg/mL"},
      {"measurement": "IC80", "setting": "[10]", "result": 3.17, "unit": "µg/mL"},
      {"measurement": "IC80", "setting": "[11]", "result": 0.538, "unit": "µg/mL"},
      {"measurement": "IC80", "setting": "[12]", "result": "> 50", "unit": "µg/mL"},
      {"measurement": "IC80", "setting": "[13]", "result": 0.01, "unit": "µg/mL"},
      {"measurement": "IC80", "setting": "[14]", "result": 22.6, "unit": "µg/mL"},
      {"measurement": "IC80", "setting": "[15]", "result": 0.214, "unit": "µg/mL"},
      {"measurement": "IC80", "setting": "[16]", "result": 0.24, "unit": "µg/mL"},
      {"measurement": "IC80", "setting": "[17]", "result": 0.5, "unit": "µg/mL"},
      {"measurement": "IC80", "setting": "[18]", "result": 0.154, "unit": "µg/mL"},
      {"measurement": "IC80", "setting": "[19]", "result": 1.71, "unit": "µg/mL"},
      {"measurement": "IC80", "setting": "[20]", "result": 0.035, "unit": "µg/mL"},
      {"measurement": "IC80", "setting": "[21]", "result": 0.047, "unit": "µg/mL"},
      {"measurement": "IC80", "setting": "[22]", "result": 3.44, "unit": "µg/mL"},
      {"measurement": "IC80", "setting": "[23]", "result": 1.38, "unit": "µg/mL"},
      {"measurement": "IC80", "setting": "[24]", "result": 8.22, "unit": "µg/mL"},
      {"measurement": "IC80", "setting": "[25]", "result": "> 50", "unit": "µg/mL"},
      {"measurement": "IC80", "setting": "[26]", "result": 0.437, "unit": "µg/mL"},
      {"measurement": "IC80", "setting": "[27]", "result": 14.2, "unit": "µg/mL"},
      {"measurement": "IC80", "setting": "[28]", "result": 24.5, "unit": "µg/mL"},
      {"measurement": "IC80", "setting": "[29]", "result": 0.61, "unit": "µg/mL"},
      {"measurement": "IC50, pseudovirus neutralization", "setting": "[30]", "result": 0.014, "unit": "µg/mL"},
      {"measurement": "IC50, pseudovirus neutralization", "setting": "[31]", "result": 0.11, "unit": "µg/mL"},
      {"measurement": "IC50, pseudovirus neutralization", "setting": "[32]", "result": 0.3, "unit": "µg/mL"},
      {"measurement": "IC50, pseudovirus neutralization", "setting": "[33]", "result": "> 50", "unit": "µg/mL"},
      {"measurement": "IC50, pseudovirus neutralization", "setting": "[34]", "result": 0.032, "unit": "µg/mL"},
      {"measurement": "IC50, pseudovirus neutralization", "setting": "[35]", "result": 0.035, "unit": "µg/mL"},
      {"measurement": "IC50, pseudovirus neutralization", "setting": "[36]", "result": 0.23, "unit": "µg/mL"},
      {"measurement": "IC50, pseudovirus neutralization", "setting": "[37]", "result": 0.01, "unit": "µg/mL"},
      {"measurement": "IC50, pseudovirus neutralization", "setting": "[38]", "result": 0.26, "unit": "µg/mL"},
      {"measurement": "IC50, pseudovirus neutralization", "setting": "[39]", "result": 0.14, "unit": "µg/mL"},
      {"measurement": "IC50, pseudovirus neutralization", "setting": "[40]", "result": "> 50", "unit": "µg/mL"},
      {"measurement": "IC50, pseudovirus neutralization", "setting": "[41]", "result": 0.309, "unit": "µg/mL"},
      {"measurement": "IC50, pseudovirus neutralization", "setting": "[42]", "result": "> 50", "unit": "µg/mL"},
      {"measurement": "IC50, pseudovirus neutralization", "setting": "[43]", "result": "> 50", "unit": "µg/mL"},
      {"measurement": "IC50, pseudovirus neutralization", "setting": "[44]", "result": 0.043, "unit": "µg/mL"},
      {"measurement": "IC50, pseudovirus neutralization", "setting": "[45]", "result": 0.031, "unit": "µg/mL"},
      {"measurement": "IC50, pseudovirus neutralization", "setting": "[46]", "result": 0.034, "unit": "µg/mL"},
      {"measurement": "IC50, pseudovirus neutralization", "setting": "[47]", "result": "> 50", "unit": "µg/mL"},
      {"measurement": "IC50, pseudovirus neutralization", "setting": "[48]", "result": 0.71, "unit": "µg/mL"},
      {"measurement": "IC50, pseudovirus neutralization", "setting": "[49]", "result": 0.49, "unit": "µg/mL"},
      {"measurement": "IC50, pseudovirus neutralization", "setting": "[50]", "result": 0.07, "unit": "µg/mL"},
      {"measurement": "IC50, pseudovirus neutralization", "setting": "[51]", "result": 2.5, "unit": "µg/mL"}
    ]}
  ]
}
